Numbered stars: 1 amine (or outer) side, 2 acyl side, 3 side chain; on linkers, the order of the positions; unused ones are H or OH. Square brackets hold non-standard residues; d marks the D form. Side chains are listed from the residue outwards. Ends that are not written are not given here. * marks the point of attachment. C20 diacid = O=C(O)CCCCCCCCCCCCCCCCCCC(=O)*; γGlu = O=C(O)[C@H](CCC(=O)[*:2])N[*:1]; AEEA = NCCOCCOCC(=O)O; Aib = CC(C)(N)C(=O)O

The chains are these.
B1: SEQ ID NO: 24 (peptide)
peptide: H[Aib]EGTFTSDVSRLK([AEEA-AEEA-γGlu-C20 diacid])EFAAQQRFLEHLV-NH2
B2: SEQ ID NO: 38 (peptide)
peptide: H[Aib]EGTFTSDVSFLK([AEEA-AEEA-γGlu-C20 diacid])EEAASQRFLEHLV-NH2
B3: SEQ ID NO: 35 (peptide)
peptide: H[Aib]EGTFTSDVSVLK([AEEA-AEEA-γGlu-C20 diacid])EEAA[Aib]QRFLEHLV-NH2
B4: SEQ ID NO: 37 (peptide)
peptide: H[Aib]EGTFTSDVSFLK([AEEA-AEEA-γGlu-C20 diacid])EEAA[Aib]QRFLEHLV-NH2
B5: SEQ ID NO: 28 (peptide)
peptide: H[Aib]EGTFTSDVSVLK([AEEA-AEEA-γGlu-C20 diacid])EEAAAQRFLEHLV-NH2
B6: SEQ ID NO: 201 (peptide)
peptide: H[Aib]EGTFTSDYSYLLEGAALQRFIQWLV-NH2
modifications: N-terminus assumed
SMILES: CC[C@H](C)[C@H](NC(=O)[C@H](Cc1ccccc1)NC(=O)[C@H](CCCNC(=N)N)NC(=O)[C@H](CCC(N)=O)NC(=O)[C@H](CC(C)C)NC(=O)[C@H](C)NC(=O)[C@H](C)NC(=O)CNC(=O)[C@H](CCC(=O)O)NC(=O)[C@H](CC(C)C)NC(=O)[C@H](CC(C)C)NC(=O)[C@H](Cc1ccc(O)cc1)NC(=O)[C@H](CO)NC(=O)[C@H](Cc1ccc(O)cc1)NC(=O)[C@H](CC(=O)O)NC(=O)[C@H](CO)NC(=O)[C@@H](NC(=O)[C@H](Cc1ccccc1)NC(=O)[C@@H](NC(=O)CNC(=O)[C@H](CCC(=O)O)NC(=O)C(C)(C)NC(=O)[C@@H](N)Cc1c[nH]cn1)[C@@H](C)O)[C@@H](C)O)C(=O)N[C@@H](CCC(N)=O)C(=O)N[C@@H](Cc1c[nH]c2ccccc12)C(=O)N[C@@H](CC(C)C)C(=O)N[C@H](C(N)=O)C(C)C
B7: SEQ ID NO: 39 (peptide)
peptide: H[Aib]EGTFTSDVSTLK([AEEA-AEEA-γGlu-C20 diacid])EEAAQQRFLEHLV-NH2
B8: SEQ ID NO: 25 (peptide)
peptide: H[Aib]EGTFTSDVSFLK([AEEA-AEEA-γGlu-C20 diacid])ETAA[Aib]QRFLEHLV-NH2
B9: SEQ ID NO: 36 (peptide)
peptide: H[Aib]EGTFTSDVSELK([AEEA-AEEA-γGlu-C20 diacid])ELAAEQRFLEHLV-NH2
B10: SEQ ID NO: 26 (peptide)
peptide: H[Aib]EGTFTSDVSRLK([AEEA-AEEA-γGlu-C20 diacid])ETAATQRFLEHLV-NH2
B11: SEQ ID NO: 3 (peptide)
peptide: H[Aib]EGTFTSDVSRLK([AEEA-AEEA-γGlu-C20 diacid])ELAAQQRFLEHLV-NH2
B12: SEQ ID NO: 29 (peptide)
peptide: H[Aib]EGTFTSDVSVLK([AEEA-AEEA-γGlu-C20 diacid])EFAAAQRFLEHLV-NH2
B13: SEQ ID NO: 43 (peptide)
peptide: H[Aib]EGTFTSDVSTLK([AEEA-AEEA-γGlu-C20 diacid])E[Aib]AAAQRFLEHLV-NH2
B14: SEQ ID NO: 31 (peptide)
peptide: H[Aib]EGTFTSDVSELK([AEEA-AEEA-γGlu-C20 diacid])EFAAEQRFLEHLV-NH2
B15: SEQ ID NO: 34 (peptide)
peptide: H[Aib]EGTFTSDVSRLK([AEEA-AEEA-γGlu-C20 diacid])ETAAEQRFLEHLV-NH2
B16: SEQ ID NO: 22 (peptide)
peptide: H[Aib]EGTFTSDVSRLK([AEEA-AEEA-γGlu-C20 diacid])EEAAEQRFLEHLV-NH2
B17: SEQ ID NO: 41 (peptide)
peptide: H[Aib]EGTFTSDVSVLK([AEEA-AEEA-γGlu-C20 diacid])ETAAQQRFLEHLV-NH2
B18: SEQ ID NO: 4 (peptide)
peptide: H[Aib]EGTFTSDVSYLK([AEEA-AEEA-γGlu-C20 diacid])ETAATQRFLEHLV-NH2
B19: SEQ ID NO: 202 (peptide)
peptide: H[Aib]EGTFTSDYSFLLEGAALQRFIQWLV-NH2
modifications: N-terminus assumed
SMILES: CC[C@H](C)[C@H](NC(=O)[C@H](Cc1ccccc1)NC(=O)[C@H](CCCNC(=N)N)NC(=O)[C@H](CCC(N)=O)NC(=O)[C@H](CC(C)C)NC(=O)[C@H](C)NC(=O)[C@H](C)NC(=O)CNC(=O)[C@H](CCC(=O)O)NC(=O)[C@H](CC(C)C)NC(=O)[C@H](CC(C)C)NC(=O)[C@H](Cc1ccccc1)NC(=O)[C@H](CO)NC(=O)[C@H](Cc1ccc(O)cc1)NC(=O)[C@H](CC(=O)O)NC(=O)[C@H](CO)NC(=O)[C@@H](NC(=O)[C@H](Cc1ccccc1)NC(=O)[C@@H](NC(=O)CNC(=O)[C@H](CCC(=O)O)NC(=O)C(C)(C)NC(=O)[C@@H](N)Cc1c[nH]cn1)[C@@H](C)O)[C@@H](C)O)C(=O)N[C@@H](CCC(N)=O)C(=O)N[C@@H](Cc1c[nH]c2ccccc12)C(=O)N[C@@H](CC(C)C)C(=O)N[C@H](C(N)=O)C(C)C
B20: SEQ ID NO: 30 (peptide)
peptide: H[Aib]EGTFTSDVSYLK([AEEA-AEEA-γGlu-C20 diacid])EEAATQRFLEHLV-NH2
B21: SEQ ID NO: 27 (peptide)
peptide: H[Aib]EGTFTSDVSFLK([AEEA-AEEA-γGlu-C20 diacid])EFAA[Aib]QRFLEHLV-NH2
B22: SEQ ID NO: 40 (peptide)
peptide: H[Aib]EGTFTSDVSVLK([AEEA-AEEA-γGlu-C20 diacid])E[Aib]AAQQRFLEHLV-NH2
B23: SEQ ID NO: 21 (peptide)
peptide: H[Aib]EGTFTSDVSRLK([AEEA-AEEA-γGlu-C20 diacid])ETAAQQRFLEHLV-NH2
B24: SEQ ID NO: 42 (peptide)
peptide: H[Aib]EGTFTSDVSTLK([AEEA-AEEA-γGlu-C20 diacid])ETAAEQRFLEHLV-NH2
B25: SEQ ID NO: 23 (peptide)
peptide: H[Aib]EGTFTSDVSRLK([AEEA-AEEA-γGlu-C20 diacid])ETAAAQRFLEHLV-NH2
B26: SEQ ID NO: 32 (peptide)
peptide: H[Aib]EGTFTSDVSTLK([AEEA-AEEA-γGlu-C20 diacid])E[Aib]AA[Aib]QRFLEHLV-NH2
B27: SEQ ID NO: 33 (peptide)
peptide: H[Aib]EGTFTSDVSVLK([AEEA-AEEA-γGlu-C20 diacid])ELAAQQRFLEHLV-NH2
B28: SEQ ID NO: 200 (peptide)
peptide: H[Aib]EGTFTSDYSWLLEGAALQRFIQWLV-NH2
modifications: N-terminus assumed
SMILES: CC[C@H](C)[C@H](NC(=O)[C@H](Cc1ccccc1)NC(=O)[C@H](CCCNC(=N)N)NC(=O)[C@H](CCC(N)=O)NC(=O)[C@H](CC(C)C)NC(=O)[C@H](C)NC(=O)[C@H](C)NC(=O)CNC(=O)[C@H](CCC(=O)O)NC(=O)[C@H](CC(C)C)NC(=O)[C@H](CC(C)C)NC(=O)[C@H](Cc1c[nH]c2ccccc12)NC(=O)[C@H](CO)NC(=O)[C@H](Cc1ccc(O)cc1)NC(=O)[C@H](CC(=O)O)NC(=O)[C@H](CO)NC(=O)[C@@H](NC(=O)[C@H](Cc1ccccc1)NC(=O)[C@@H](NC(=O)CNC(=O)[C@H](CCC(=O)O)NC(=O)C(C)(C)NC(=O)[C@@H](N)Cc1c[nH]cn1)[C@@H](C)O)[C@@H](C)O)C(=O)N[C@@H](CCC(N)=O)C(=O)N[C@@H](Cc1c[nH]c2ccccc12)C(=O)N[C@@H](CC(C)C)C(=O)N[C@H](C(N)=O)C(C)C

For one test, the target named is human secretin receptor (hSCTR) (human, UniProt P47872 23-440). In words: cell-based or functional assay.
Chain of human secretin receptor (hSCTR) (P47872 23-440): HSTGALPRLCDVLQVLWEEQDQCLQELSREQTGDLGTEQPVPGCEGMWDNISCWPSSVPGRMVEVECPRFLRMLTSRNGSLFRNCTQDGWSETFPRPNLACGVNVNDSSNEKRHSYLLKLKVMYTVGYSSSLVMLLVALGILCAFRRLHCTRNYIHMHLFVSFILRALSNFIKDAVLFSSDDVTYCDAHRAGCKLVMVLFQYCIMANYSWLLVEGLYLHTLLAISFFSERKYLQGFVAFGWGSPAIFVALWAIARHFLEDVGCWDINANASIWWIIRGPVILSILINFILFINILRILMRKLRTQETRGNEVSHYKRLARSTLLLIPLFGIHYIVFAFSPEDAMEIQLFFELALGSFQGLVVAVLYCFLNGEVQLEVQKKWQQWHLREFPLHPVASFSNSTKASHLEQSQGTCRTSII
As to B1, the “pEC50 hSCTR” value was 6.8 -log M.
Still for that read-out and setting: then B2, with 6 -log M; and B3, with 6.1 -log M; and B4, with 5.7 -log M.
Take B5: the “pEC50 hSCTR” value is 5.9 -log M.
B6: the “pEC50 hSCTR” value was 7.9 -log M.
Take B7: the “pEC50 hSCTR” value was 6.5 -log M.
Same read-out and setting: then B8, with 5.1 -log M; and B9, with 6.5 -log M.
On to B10, for which the “pEC50 hSCTR” value was 7.2 -log M.
In the case of B11, the “pEC50 hSCTR” value was 7.1 -log M.
As for B12, the “pEC50 hSCTR” value was 6.1 -log M.
The same measure, in the same setting: then B13, with 6.5 -log M; and B14, with 5.2 -log M; and B15, with 6.4 -log M.
Take B16: the “pEC50 hSCTR” value was 6.4 -log M.
Take B17: the “pEC50 hSCTR” value was 6.9 -log M.
For the molecule B18, the “pEC50 hSCTR” value was 7 -log M.
Consider B19, for which the “pEC50 hSCTR” value was 7.4 -log M.
On to B20, for which the “pEC50 hSCTR” value was 6.6 -log M.
The same measure, in the same setting: then B21, with 5.5 -log M; and B22, with 6.4 -log M.
Still for that read-out and setting: for B23 the value was 6.7 -log M; for B24, 5.5 -log M.
Consider B25, for which the “pEC50 hSCTR” value is 6.8 -log M.
The same measure, in the same setting: for B26 the value was 6.2 -log M; for B27, 6.5 -log M; for B28, 8.1 -log M.

The next test has as its target human GLP-1 receptor (hGLP1R) (human, UniProt P43220 24-463). In words: cell-based or functional assay.
For the molecule B1, the “pEC50 hGLPR1” value is 10.3 -log M.
Take B2: the “pEC50 hGLPR1” value is 10.5 -log M.
In the case of B3, the “pEC50 hGLPR1” value was 10.8 -log M.
For B4, the “pEC50 hGLPR1” value is 10.9 -log M.
B5: the “pEC50 hGLPR1” value is 10.7 -log M.
For the molecule B6, the “pEC50 hGLPR1” value is 10.9 -log M.
With B7, the “pEC50 hGLPR1” value was 10.8 -log M.
Same read-out and setting: then B8, with 9 -log M; and B9, with 10.5 -log M; and B10, with 10.9 -log M.
Consider B11, for which the “pEC50 hGLPR1” value was 10.8 -log M.
Still for that read-out and setting: for B12 the value was 10 -log M; for B13, 11 -log M.
Same read-out and setting: for B14 the value was 10.4 -log M; for B15, 10.6 -log M.
For B16, the “pEC50 hGLPR1” value was 10.7 -log M.
Same read-out and setting: then B17, with 11.1 -log M; and B18, with 11.1 -log M; and B19, with 10.4 -log M.
Same read-out and setting: then B20, with 10.9 -log M; and B21, with 10 -log M; and B22, with 10.7 -log M.
Still for that read-out and setting: for B23 the value was 10.9 -log M; for B24, 10.8 -log M; for B25, 10.7 -log M.
Take B26: the “pEC50 hGLPR1” value is 10.6 -log M.
On the same count and under the same terms, for B27 the value was 10.2 -log M; for B28, 10.7 -log M.

The record behind these values is US20260201008A1, “SECRETIN-DERIVED GLP1R SELECTIVE AGONISTS” (GUBRA A/S, priority 2023, published 2026).
